Laboratory results published in the nanobody polyreactivity screen of Harvey et al. (2022).

Assay: yeast display, Sf9 membrane polyspecificity reagent, FACS + sequencing; frameworks hold sequencing errors
In short: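 Genes from sorted yeast were amplified by colony PCR, read by MiSeq 2 × 250 sequencing and filtered on CDR length. These cells carried a synthetic nanobody library in Saccharomyces cerevisiae BJ5465 and were sorted by FACS into low and high (top ~1%) gates on anti-HA and streptavidin fluorescence. Polyreactivity is labelled according to the gate of origin.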

Sequence: QVQLVESGGGLVQAGGSLRLSCAASGSTYHYAMGWYRQAPGKERELVASITWRGDTTYYADSVKGRFTISRDNAKNTVYLQMNSLKPEDTAVYYCAARKFFRQGGKRYDYWGQGTQVTVSS
- polyreactivity (PSR sort gate): high polyreactivity

Sequence: QVQLVESGGGLVQAGGSLRLSCAASGSTFGDYAMGWYRQAPGKREFVAAISFSGGNTYYADSVKGRFTISRDNAKNTVYLQMNSLKPEDTAVYYCNASSYPWEYYYLYYGYDYWGQGTQVTVSS
- polyreactivity (PSR sort gate): low polyreactivity

Sequence: PVQLVDSGGGLVQAGGSLRLSCAASGRIFYGYALGWYRQAPGKERDLDAAIDWSGGSTYADSVTGRFTISRDNAKNTVYLPMHSLKPEDTAVYYCATDWVTSQQPYYWIYEYWGQGTQVTVSS
- polyreactivity (PSR sort gate): low polyreactivity

Sequence: QVQLVESGGGLVQAGGSLRLSCAASGSTFLLNTMGWYRQAPGKERELVAAISSITGDTYYADSVKGRFTISRDNAKNTVYLQMNSLNPEDTAVYYCAAYLSETRPYLYDYWGQGTQVTVSS
- polyreactivity (PSR sort gate): low polyreactivity

Sequence: QVQLVESGGGLVQAGGSLRLSCAASGFTFYSYAMGWYRQAPGKERELVAAISRSGGSTRYADSVKGRFTISRENAKNTVYLQMNSLKPEDTAVYYCNAGKDRAYDYWGQGTQVTVSS
- polyreactivity (PSR sort gate): high polyreactivity

Sequence: QVQLVESGGGLVQAGGSLRLSCAASGSIFRPYAMGWYRQAPGKERELVAGISLRGGSTSYADSVKGRFTISRDNAKNTVYLQMNSLKPEDTAVYYCAASYWWKGDSTYGYWGQGTQVTVSS
- polyreactivity (PSR sort gate): high polyreactivity

Sequence: QVQLVESGGGLVQAGGSLRLSCAASGYIFIGYAMGWYRQAPGKERELVATITSGGSTNYADSVKGRFTISRDNAKNTVYLQLHSLNPEDTAVDYCAAGRGRYFYSWRYLYAIFDYWGQGTQVTVSS
- polyreactivity (PSR sort gate): low polyreactivity

Sequence: QVQLVESGGGLVQAGGSLRLSCAASGIIFQYYVMGWYRQAPGKERELVAAIDKSGGSTYYADSVKGRFTISRDNAKNTVYLQMNSLKPEDTAVYYCNRDRGWTRFYVYSTGAWLYDYWGQGTQVTVSS
- polyreactivity (PSR sort gate): low polyreactivity

Sequence: QVQLVESGGGLVQAGGSLRLSCAASGSIIYNYAMGWYRQAPGKERELVAAINRSGGITYYADSVKGRFTISRDNAKNPVYLQMNSLKPEDTAVYYCAADRSFGHHYWYTGKRYDYWGQGTQVTVST
- polyreactivity (PSR sort gate): low polyreactivity

Sequence: QVQLEESGGGLVQAGGTLRLSCAASGRIFGWYAMGWYRQPPGKERELVAAISSGGRTNYADSVKGRFTISRDNAKNTVYLQMNSLKPEDTAVYYCNARSTYLPYKFGYDYWGQGTQVTVSS
- polyreactivity (PSR sort gate): low polyreactivity

Sequence: QVQLVESGGGLVQAGGSLRLSCADSGRIFRYYAMGWYRQAPGKERELVAAITWSGGTTIYADSVKGRFSISRDNAKNTVYLQMNSLKPEDTAVYYCNAARSRGANLVPPYRLYYWGQGTQVTVSS
- polyreactivity (PSR sort gate): low polyreactivity

Sequence: QVQRVESGGGLVQAGGSLRLSCAASGRIFSWYTMGWYRQAPGKERELVAVITSGGTTKYADSVKGRFTISRDNAKNTVYLQMNSLKPEDTAVYYCNVAGRDYAVRWGSFDYWGQGTQVTVSS
- polyreactivity (PSR sort gate): low polyreactivity

Sequence: QVQLVESGAGLVQAGGSLRLSCAASGRTFWWYAMGWDRQAPGKERELVADINGSGGSTYYADSVKGRFTISRDNAKNTVYLQMICLKPEDTAVYFCAADYYRYIHSVVYSIYDYWGQGTQVTVSS
- polyreactivity (PSR sort gate): low polyreactivity

Sequence: QDQLVESGGGLVQAGGSLRLSCAASGSIFVGYAMGWYRQAPGKETELVAAISTRGGSTYYADSVKGRFTISRDNAKNTVYLQMNSVKPEDTAVYYCAADYLDSTYGYVYGWDDYWGQGTQVTVSS
- polyreactivity (PSR sort gate): low polyreactivity

Sequence: QVQLVESGGGLVQAGGSLRLSCADSGLIFTQYAMGWYIQAPGKEREFVAAITWNGGRTYYADSVKGRFTISRDNAKNTVYLQMNSLKPEDTAVYYCATRNTRFHLDYWGQGTQVTVSS
- polyreactivity (PSR sort gate): high polyreactivity

Sequence: QVQLEESGGGLVQAGGSLRLSCAASGRTFYSSAMGWYRQPPGKERQLVAAITISGGRTFYADSVKGRSTISRDNAKNTVYLQMNSLKPEDTAVYYCATDTYEPFHFEDDYWGQGTQVTVST
- polyreactivity (PSR sort gate): low polyreactivity

Sequence: QVQLVESGGGLVQAGGRLRLSCAASGIIFASNAMGWYCQAPGKERELVAAISRSGGRTYYADSVKGRFTISRDNAKNTVYLQMNSLKPEDTAVYYCAILARSGTLPYYYWGQGTQVNVSS
- polyreactivity (PSR sort gate): high polyreactivity

Sequence: QVQHVESGGGLVQARGSLRLSCAASGFIIWGYAMGWYRQAPGKERELVAAISSSGGSTYYADSVKGRFTISRDNAKNTVYLQMNSLKPEDTAVYYCAAVRYQAYSGDGGYWGQGTQVTVSS
- polyreactivity (PSR sort gate): low polyreactivity

Sequence: QVQLVESGGGLVQAGGSLRLSCAASGSTIVYYAMGWYRQAPGKERELVAAITSDGSTDYADSVKGRFTISRDNAKNTVYLQMNSLKPEDTAVYYCAVVTFYFCTDYYDVDYWGQGTQVTVSS
- polyreactivity (PSR sort gate): low polyreactivity

Sequence: QVQLVESGGGLVQAGGSLRLSCAASGSTLAIYAMGCYRQAPGKERELVASISRVGSTNYADSVKGRFTISRDNAKNTVYLQMNSRIPEDTAVYYCAARRWSYVILRAYYYWGQGTQETVSS
- polyreactivity (PSR sort gate): high polyreactivity

Sequence: QVQLVESGGGLVQAGGSLRLSCAASGSIFRIYVMGWYRQAPGKERELVAAINSGGRTKYADSVKGRFTISRDNAKNTVYLLMNSLKPDDTAVYYCAAAFLYRKGVSSLYDSWGQGTQVTVSS
- polyreactivity (PSR sort gate): high polyreactivity

Sequence: QVQLVESGGRLVQAGGSLRLSCAASGSTFDYNAMGWYRQEPGKESEFVAAITSTGGNTYYADSVKGRFTISRDNAKNTVYLQMNSLKPEDTAVDYCNKDVARYPYGKFDYWGQGTQVTVSS
- polyreactivity (PSR sort gate): low polyreactivity

Sequence: QVQLVESGGGLVQAGGSLRLSCDASGSTIDWYAMGWYRQAPGKERELVAGITISAGRTYYADSVKGRFTISRDNAKNTVYLQMNSLKPEDTAVYYCAADVYYYLDMDHWGQGTQVTVSS
- polyreactivity (PSR sort gate): low polyreactivity

Sequence: QVQLVESGGGLVQAGGSLRLSCAASGLIFYYYAMGWYRQAPGKERELVAAITTGGGTYYADSVKGRFTISRDNAKNTVYLQMNSLKPEDTAVYYCAVYYRSYWGYEYWGQGTQVTVSS
- polyreactivity (PSR sort gate): high polyreactivity

Sequence: QVQLVESGGGLVQAGGSLRLSCAASGRIFYYYVMGWYRQAPGKERELVAVIDWSGGSTYYADSVKGRFTISRDNAKNTVYLQMNSLKPEDTAVYYCAKVWLNFSLAYEDYDYWGQGTQVTVSS
- polyreactivity (PSR sort gate): low polyreactivity

Sequence: QVQLVESGGGLVQAGGSLRLSCAASGSTFHKYAMGWYRQAPGKEREFVAAISWSGGSTYYADSVKGRFTISRDNAKNTVYLQMNSLKPEDTAVYYCAAKGGVSRARWRSIFWHDYWGQGTQVTVSS
- polyreactivity (PSR sort gate): high polyreactivity

Sequence: QVQLVESGGGLVQAGGSLRLSCAASGGTFSTNAMGWYRQAPGKERELVAAISLSGGRTYADSVKGRFTISRDNAKNTVYLQMNSLKPEDTAVYYCNADSAGITRARSELDYWGQGTQVTVSS
- polyreactivity (PSR sort gate): low polyreactivity

Sequence: QVQLVESAGGLVQAGVSLRLSCAASGFTFAQNVMGWYRQAPGKERELVAAISVSGGSTYYADSVKGRFTISRDNAKNTVYLQMNSLKPEDTAVYYCNAVAGVTKRVDLSRSGYWGLGTQVTVSS
- polyreactivity (PSR sort gate): high polyreactivity

Sequence: QVQRVESGGGLVQAGGSLRLSCAASGRTFYPYLMGWYRQSPGKERELVARIRWSGSSTYYADSVKGRFTISRDNAKNTVYFQMNSLKPEDTAVYYCNARPSWYVFGSSVHSGMGYWGQGTQVTVSS
- polyreactivity (PSR sort gate): high polyreactivity

Sequence: QVQLVESGGGLVQAGGSLRLSCAASGRIFTYYGMGWYRQAPGKEWELVAAISSSGDSTFYADSVKGRFTISRDNAKNTVYLQMNSLKPEDTAVYYCAADYYYVWYDYWGQGTQVTVSS
- polyreactivity (PSR sort gate): low polyreactivity

Sequence: QVQHVESGGGLVQAGGSLRLSCAASGSIFVPYAMGWYRQAPGKERELVAAISSRGGRTYYADSVKGRFTISRDNAKNTVYLQMISLKPEDTAVYYCNKTAGSHIPRLEYWGQGTQVTVSS
- polyreactivity (PSR sort gate): low polyreactivity
